The source of these data is publication PMC8096248.

For series [1], the target named is family-D DNA polymerase (PolD), DP1–DP2 complex, T. kodakarensis, recombinant wild type (Thermococcus kodakarensis) (UniProt Q5JET0). The experiment in a line: SPR. (Surface plasmon resonance follows binding to a sensor surface in real time, without labels.)
For the next series, the target named is PolD cPIP mutant;PCNA1 (Thermococcus kodakarensis;Thermococcus …, UniProt Q5JET1;Q5JET0;Q5JF32 1-735;1-963+1438-1798;1-249, L1792A;F1795A;F1796A;internal_change|). The experiment in a line: gel filtration. (In general: In gel filtration, larger molecules generally elute earlier.)
The next series concerns the target PolD (DP1-DP2);PCNA1 (Thermococcus kodakarensis;Thermococcus …, UniProt Q5JET1;Q5JET0;Q5JET0;Q5JF32 1-735;1-963;1438-1798;1-249, |). Kind of series: gel filtration.

B1: PriS, small subunit of primase, T. kodakarensis, recombinant (natural protein)
chain: MSKLLREVTPEERRLYYSGEWDAKKLPEFIVESIERREFGFDHTGEGPSDRKNAFSDVRDLEDYIRATAPYAAYSSVAFYRNPQEMEGWLGAELVFDIDAKDLPLRRCQNEHPSGQVCPICLEDAKELARDTLIILKEDFGFENIHVVYSGRGYHIRVIDEWALKLDSKARERILSYVSAAEEVTFDDIQKRYIMLSSGYFRVFRLRFGYFIQRINENHLKNIGLKRSTAEKLLDEKTRQDIVEKFVNKGLLAAFPEGVGYRTLLRLFGLSTTFSKAYFDGRVTVDLKRILRLPSTLHSKVGLVATYIGSDEKRLEKFDPFKDAVPEFRKEEVQKAYQEWKELHEG
As usually defined, the Kd is the constant that tells how readily two partners part at equilibrium. For B1, in series [1], the Kd is 1.4 µM.

B2: PriL, large subunit of primase, T. kodakarensis, recombinant (natural protein)
chain: MLDPFGKRAESLIREEFGDLLALLERVPSAISVEEPISLVSWMLESENPPQELVEVDNLEELRDLFKFYALLGAASISPYGLEAEVVKRATLRLYSERIKASKNLSETMLPVVPVGENEIPHNDLNILERRMDRNLSPEEKEKLKIKYKIPIKDLLNLWGSSLKEVYIRNGYAYLRWETALKMWEKAFEKRFERAVNILYEYRDELPEFYHRLREKLEEIAEEYFKERGEMFKGTASPLRFDLFPPCVKEALKGVPAGMRNYAITVLLTSFLSYARICPNPPKKDVRIKDCINDLKIIEEEILPVIIEAGNRCKPPLFEDQPHEIKNIWYHLGFGLTDSPTMEDSGNSTWYFPPNCDKIRANAPQLCKPDKYCRGIKNPLSYYLKRLYLEGKKKEGETSE
As for B2, in series [1], the Kd was determined as 0.16 µM.

B3: primed DNA d29/d45 (dsDNA)
DNA 1: GGTACCGGGCCCCCCCTCGAGGTCGACGG
DNA 2: ATCAAGCTTATCGATACCGTCGACCTCGAGGGGGGGCCCGGTACC
modifications: 3'-OH of d29 replaced by NH2
As to B3, the binding result in the series with PolD cPIP mutant;PCNA1 and with PolD (DP1-DP2);PCNA1 was “binds” throughout.
